B1: P2G3 LS human IgG1 monoclonal antibody (antibody, V domains shown)
VH: EVQLVESGGGLVQPGRSLRLSCAASGFRFDDYALHWVRQAPEKGLEWVSGISWNSNNIGYAESVKGRFTISRDTAKKSLYLQMNDLRAEDTALYYCVKDRHYDSSGYFVNGFDIWGQGTLVTVSA
VL: DIQLTQSPSFLSASVGDRVTVTCRASQGISSYVAWYQQKAGKAPTLLIYTASTLQSGVPSRFSGSGSGTEFTLTISSLQPEDFATYYCQQLHSYPVTFGQGTRLDIE
B2: P5C3 LS monoclonal antibody (antibody, V domains shown)
VH: QMQLVQSGPEVKKPGTSVKVSCKASGFTFTSSAVQWVRQARGQRLEWIGWIVVGSGNTDYAQQFQERVTITRDMSTSTAYMELSSLGSEDTAVYYCAAPNCSGGSCYDGFDLWGQGTMVTVSS
VL: EIVLTQSPGTLSLSPGERATLSCRGSQSVRSSYLGWYQQKPGQAPRLLIYGASSRATGIPDRFSGSGSGTDFTLTISRLEPEDFAVYYCQQYGSSPWTFGQGTKVEIK

Biological target: original 2019-nCoV RBD protein (SARS-CoV-2, UniProt P0DTC2)
Assay: Luminex bead-based competitive binding assay
Conditions: both partners purified

| Binder | binding result |
| --- | --- |
| B1 | binds |
| B2 | binds |

From paper PMC9418005 (Nature Microbiology, 2022)
